In US20230190642A1, “GROWTH FACTOR OTIC FORMULATIONS” (OTONOMY, INC., priority 2018, published 2023):

Assays:
[1] = test system: Spiral ganglion neurons (SGNs); assay: Survival of dissociated spiral ganglion neurons (Example C); format: cell-based, rat; conditions: 1 µM; compared to vehicle-only control, 0.01% DMSO; FIG. 6C
Description: Spiral ganglion neurons (SGNs) were harvested from P1-P3 rates, dissociated, and cultured in 96-well plates. The SGNs were treated with neurotrophins and/or antibodies at various concentrations. After about 24 hours, media was exchanged to serum-free media and the neurotrophins and/or antibodies were replenished. Cells were cultured for an additional 48-72 hours before being fixed using 4% paraformaldehyde (PFA) and stained using 4′,6-diamidino-2-phenylindole (DAPI). […] Surviving neurons were identified as cells with intact soma and at least one neurite.

tinnitus = conditions: administered by IV; cited from earlier work
[2] = test system: Méniére’s disease symptoms; conditions: infusion into the scala tympani; cited from earlier work
[3] = test system: noise-induced cochlear synaptopathy; assay: Noise-induced cochlear synaptopathy in rats (Example G); format: in vivo, rat
Description: Animals: Male Sprague-Dawley rats (5-6 months of age) were used for efficacy studies and females (2-3 months) were used for pharmacokinetic studies.
Formulations: Human recombinant BDNF was suspended in the thermoreversible polymer Poloxamer 407 (16%) to reach a range of BDNF concentrations.
Intratympanic (IT) injection: Formulations were administered under anesthesia as a single IT injection (20 µl through the tympanic membrane into the middle ear, targeting the round window membrane (RWM).
Noise-induced cochlear synaptopathy: Rats (n= 44 per treatment group) received a single acoustic trauma (105 dB SPL, 8-16 kHz, 1h) under anesthesia. 24 hours later (Day 1) animals received a single bilateral IT injection of the treatment regimens. Auditory function (ABR and ABR wave 1 amplitude) was monitored at day 1 and then every 7 days for 28 days. At termination (Day 28), cochleae were collected and assessed for evidence of cochlear synaptopathy (IHC synaptic puncta counts).
Immunohistochemistry: Dissected cochleae were immunostained with antibodies against presynaptic (CtBP2) and postsynaptic (GluR2) proteins and MyosinVIIa to label hair cells. Cochleae were then frequency mapped and high-magnification images were obtained with a Zeiss LSM-880 confocal microscope and imaged at an interval of 0.35 µm.
Intratympanic BDNF improves Auditory Brainstem Response (ABR) thresholds and wave I amplitudes in adult rats. The Auditory Brainstem Response (ABR) is an objective test that measures hearing sensitivity and can identify abnormalities in the peripheral auditory system and the auditory pathway up through the brainstem. Adult male rats were bilaterally exposed to noise followed by an intratympanic injection of 0.05 mg/ml BDNF in P407 24 hours after noise exposure. ABR recordings were obtained at days 1, 7, 14, and 28.

noise exposed adult rats = assay: Noise-induced hearing loss / synaptopathy in rats (Example A1); format: in vivo, rat
Description: Poloxamer 407 gel at 16% was prepared using the cold method. In brief, a 16% w/w stock solution of poloxamer 407 was prepared by slowly adding it to a cold buffer solution (10 mM PBS, pH 7.4). Sterilization was achieved by filtration. Human recombinant BDNF was suspended with an appropriate amount of poloxamer 407 solution to reach a range of concentration of 0.05 to 5.0 mg/ml BDNF.
Male rats (Charles River) approximately 10-11 months of age served as subjects (N = 6 per group). Prior to any procedures, animals were anesthetized using a combination of xylazine (10 mg/kg) and ketamine (90 mg/kg) for up to one hour via the intraperitoneal route. If needed, an intraoperative booster was administered intraperitoneally representing one-tenth of the original dose. […]
Auditory Brainstem Response (ABR) assessment (wave 1) - During the procedure, additional anesthetic (xylazine and ketamine) was administered if needed to maintain the depth of anesthesia sufficient to insure immobilization and relaxation. ABRs were recorded in an electrically and acoustically shielded chamber, one ear at a time. […] Acoustic calibration was performed with TDT software (SigCal) and thresholds were expressed as dB SPL in conditions identical to that of threshold recordings in animals. […] Wave 1 was quantified by averaging the wave 1 amplitude from intensities ranging between 60-80 dB SPL. […]

SGNs = assay: SGN complexity, dissociated SGNs (Example D); format: cell-based, rat; conditions: compared to IgG-treated control, FIG. 7D
Text: SGNs were immunostained, imaged, and batch analyzed with PerkinElmer Harmony 4.6 software. Changes in the complexities of SGNs upon treatment with various agents were examined. […] All of the images in a single well were stitched together and analyzed. SGN somas are shown in the upper right panel and SGN neurites are shown in the lower left panel. As shown in the lower right panel, each neurite tree is assigned to a single cell for analysis. Depending on the stitching, occasionally neurites will not meet the criteria due to gaps that exceed a user-defined threshold.

## OCCN(CCO)c1ccc(C(c2ccc(Cl)cc2)c2ccc(N(CCO)CCO)cc2)cc1 [LM22b10]
[1]
  Survival of SGNs: not improved

## CCN(CC)CC(=O)Nc1c(C)cccc1C [Lidocaine]
tinnitus
  sufferers in whom the noise associated with tinnitus is reduced or eliminated: 60-80%

## Cc1ccccc1C(=O)Nc1ccc(C(=O)N2CCCC(N(C)C)c3ccccc32)cc1 (stereo not drawn) [OPC-31260]
[2]
  Méniére’s disease symptoms: marked reduction

B1: brain-derived neurotrophic factor (protein, UniProt P23560 19-247, looked up)
Neurotrophic factor BDNF …: APMKEANIRGQGGLAYPGVRTHGTLESVNGPKAGSRGLTSLADTFEHVIEELLDEDQKVRPNEENNKDADLYTSRVMLSSQVPLEPPLLFLLEEYKNYLDAANMSMRVRRHSDPARRGELSVCDSISEWVTAADKKTAVDMSGGTVTVLEKVPVSKGQLKQYFYETKCNPMGYTKEGCRGIDKRHWNSQCRTTQSYVRALTMDSKKRIGWRFIRIDTSCVCTLTIKRGR
notes: Human recombinant BDNF; neurotrophin, Trk agonist on spiral ganglion neurons
[3]; adult male rats, BDNF or vehicle treatment following noise exposure, across many frequencies, FIG. 12C
  ABR wave I amplitudes: Significant improvements
[3]; adult male rats, intratympanic 0.05 mg/ml BDNF in P407 24 hours after noise exposure, ABR at days 1, 7, 14, 28, vs P407 vehicle, FIG. 12A
  recovery of initial ABR threshold shifts: more rapid recovery
[3]; adult male rats, intratympanic 0.05 mg/ml BDNF in P407 24 hours after noise exposure, vs P407 vehicle
  levels of hearing loss: reduced
[3]; adult rats after noise damage, each frequency region throughout the cochlea, FIG. 13C
  synaptic puncta (co-expression of CtBp2 and GluR2) per inner hair cell: increased
[3]; adult rats, intratympanic BDNF
  cochlear synaptopathy: repairs
Noise exposed adult rats; single intratympanic 0.005% BDNF in Poloxamer 407 24 hrs after noise, compared to vehicle, FIG. 3A
  hearing function (wave I amplitude): improved hearing function
Noise exposed adult rats; single intratympanic 0.005% BDNF in Poloxamer 407, Day 28, compared to vehicle, FIG. 3B
  number of ribbon synapses per inner hair cell: increased
SGNs
  total neurite length, total number of extremities, segments, and nodes per cell (differences): not statistically significant

B2: neurotrophin-3 (protein, UniProt P20783 139-257, looked up)
Neurotrophin-3: YAEHKSHRGEYSVCDSESLWVTDKSSAIDIRGHQVTVLGEIKTGNSPVKQYFYETRCKEARPVKNGCRGIDDKHWNSQCKTSQTYVRALTSENNKLVGWRWIRIDTSCVCALSRKIGRT
notes: neurotrophin; Trk agonist on spiral ganglion neurons
SGNs
  total neurite length, total number of extremities, segments, and nodes per cell (differences): not statistically significant
